Ends that are not written are not given here.
How the values were obtained:
[1] = biological target: biotinylated human plasma Kallikrein (Homo sapiens, UniProt P03952); test: Phage binding assay of individual clones, randomisation of peptide domains
Source text: Library construction: Small phage libraries were generated according to the methods of Heinis et al as described in ‘Cloning of phage libraries’ above. The sficx3ba primer was modified such that the bicycle-encoding portion was based on a parent 5×5 bicycle (5×5: two 5-residue loops) DNA sequence with only 4-6 codons randomized to NNS. The randomized codons were those encoding the peptide domain/motif of interest.
Assay of binding of individual clones: Library transformant colonies, or selection output colonies, were picked and grown as individual cultures in 2TY broth containing selective antibiotic. The picked colonies were DNA-sequenced using a QIAgen PyroMark Q96 DNA sequencer to reveal the amino-acid substitution present in each clone, and were assayed for human plasma Kallikrein binding as follows. The phage-containing supernatant was harvested from the culture and phage were cyclised with tris bromomethyl benzene(TBMB) based on the methods of Heinis et al (Nature Chemical Biology vol. 5 pp 502-507 (2009)). The purified phage from this process were assayed for binding to biotinylated human plasma Kallikrein using a homogeneous plate-based binding assay; assay read-out measured on a BMG Labtech Pherastar FS plate reader. The quantitative binding data from duplicate assay samples was averaged (mean) and expressed as signal:background. Assay data shown is representative of at least 2 independent experiments. The assay data was correlated with the peptide sequences.
The WPAR (SEQ ID NO: 18) motif identified from Example 1 was analysed in the context of the 06-34-03 peptide, in order to identify alternatives or improvements to the WPAR (SEQ ID NO: 18) motif. A library was constructed where positions 1, 6, 7, 8, 9 &10 of 06-34-03 were fixed and positions 2, 3, 4 & 5 were randomised (see ‘Randomisation of peptide domains—Library construction’ in Methods above). Selections against human plasma Kallikrein were performed at a variety of stringencies (see Phage selections' in Methods above). All output sequences were identified and analysed for target binding (see ‘Randomisation of peptide domains—Assay of binding of individual clones’ in Methods above). Table 17 lists each unique sequence, its relative abundance in the selection output (frequency), and a rank number according to target binding strength.
Selections against human plasma Kallikrein were performed with this library in order to study the non-WPAR (SEQ ID NO: 18) determinants of Kallikrein binding, and to isolate the optimal WPAR (SEQ ID NO: 18)-containing peptide sequence. Over 150 selection output sequences were isolated and screened for binding to human plasma Kallikrein (as described in Methods above). The sequences were ranked in order of Kallikrein binding and the top 50 sequences were aligned in Table 19. […]

Biotinylated hPK = biological target: T1, Biotinylated hPK (Homo sapiens, UniProt P03952); test: Phage selections, abundance of sequences in selection outputs; format: binding; details: for Frequency (relative abundance in the total selection outputs): randomised WPAR motif at positions 2, 3, 4 & 5 within the 06-34-03 sequence
T1 construct: IHPKA, from human plasma; purchased Innovative Research, Novi, MI, USA IHPKA; host or cells: human plasma

[2] = randomised WPAR motif at positions 2, 3, 4 & 5 within the 06-34-03 sequence, 1 = best binding
[3] = WPAR domain fixed, positions 1, 6, 7, 8, 9 & 10 randomised, top 50

T1 sequence (P03952 20-638): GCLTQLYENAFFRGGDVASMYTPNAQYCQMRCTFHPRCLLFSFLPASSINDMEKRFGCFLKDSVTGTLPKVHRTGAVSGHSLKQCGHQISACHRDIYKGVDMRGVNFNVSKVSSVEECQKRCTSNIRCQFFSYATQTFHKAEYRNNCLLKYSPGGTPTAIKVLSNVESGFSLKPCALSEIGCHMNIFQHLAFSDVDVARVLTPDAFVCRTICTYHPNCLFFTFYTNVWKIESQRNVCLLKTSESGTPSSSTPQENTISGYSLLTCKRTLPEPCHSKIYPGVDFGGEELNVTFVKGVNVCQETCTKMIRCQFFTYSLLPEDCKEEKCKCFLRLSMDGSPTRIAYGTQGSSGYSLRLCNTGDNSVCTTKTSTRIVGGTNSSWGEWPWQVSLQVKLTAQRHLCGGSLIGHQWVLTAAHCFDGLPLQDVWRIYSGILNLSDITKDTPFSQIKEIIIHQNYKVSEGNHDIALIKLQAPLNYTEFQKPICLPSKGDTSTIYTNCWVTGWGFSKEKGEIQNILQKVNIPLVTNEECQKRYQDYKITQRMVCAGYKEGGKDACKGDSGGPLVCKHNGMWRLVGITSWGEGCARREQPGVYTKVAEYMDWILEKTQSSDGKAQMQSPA
biotinylated human plasma Kallikrein, sequence (P03952 20-638): as above

SEQ ID NO: 75 (CSFPFRCTHQDLC; Synthetic sequence Kallikrein binder identified from selections using a randomised WPAR motif at positions 2, 3, 4 & 5 within the 06-34-03 sequence of PCT/EP2012/069898 (SEQ ID NO 58))
Rank (sequences ranked according to Kallikrein binding) [1, 2]: 3 | Frequency (relative abundance in the total selection outputs) (Biotinylated hPK): 17

SEQ ID NO: 84 (CSFPFRCTHQDLC; Synthetic sequence Kallikrein binder identified from selections using a randomised WPAR motif at positions 2, 3, 4 & 5 within the 06-34-03 sequence of PCT/EP2012/069898 (SEQ ID NO 58))
Rank (sequences ranked according to Kallikrein binding) [1, 2]: 12 | Frequency (relative abundance in the total selection outputs) (Biotinylated hPK): 2

SEQ ID NO: 85 (CSLPFRCTHQDLC; Synthetic sequence Kallikrein binder identified from selections using a randomised WPAR motif at positions 2, 3, 4 & 5 within the 06-34-03 sequence of PCT/EP2012/069898 (SEQ ID NO 58))
Rank (sequences ranked according to Kallikrein binding) [1, 2]: 13 | Frequency (relative abundance in the total selection outputs) (Biotinylated hPK): 3

SEQ ID NO: 88 (CSLPFKCTHQDLC; Synthetic sequence Kallikrein binder identified from selections using a randomised WPAR motif at positions 2, 3, 4 & 5 within the 06-34-03 sequence of PCT/EP2012/069898 (SEQ ID NO 58))
Rank (sequences ranked according to Kallikrein binding) [1, 2]: 16 | Frequency (relative abundance in the total selection outputs) (Biotinylated hPK): 1

SEQ ID NO: 89 (CSLPFRCTHQDLC; Synthetic sequence Kallikrein binder identified from selections using a randomised WPAR motif at positions 2, 3, 4 & 5 within the 06-34-03 sequence of PCT/EP2012/069898 (SEQ ID NO 58))
Rank (sequences ranked according to Kallikrein binding) [1, 2]: 17 | Frequency (relative abundance in the total selection outputs) (Biotinylated hPK): 4

SEQ ID NO: 92 (CSLPFKCTHQDLC; Synthetic sequence Kallikrein binder identified from selections using a randomised WPAR motif at positions 2, 3, 4 & 5 within the 06-34-03 sequence of PCT/EP2012/069898 (SEQ ID NO 58))
Rank (sequences ranked according to Kallikrein binding) [1, 2]: 20 | Frequency (relative abundance in the total selection outputs) (Biotinylated hPK): 1

SEQ ID NO: 97 (CSLPFRCTHQDLC; Synthetic sequence Kallikrein binder identified from selections using a randomised WPAR motif at positions 2, 3, 4 & 5 within the 06-34-03 sequence of PCT/EP2012/069898 (SEQ ID NO 58))
Rank (sequences ranked according to Kallikrein binding) [1, 2]: 25 | Frequency (relative abundance in the total selection outputs) (Biotinylated hPK): 2

SEQ ID NO: 147 (CSWPARCIHQDLC; Synthetic sequence Kallikrein binder containing a WPAR motif)
Rank (sequences ranked according to Kallikrein binding) [1, 3]: 34

SEQ ID NO: 148 (CTWPARCTHTDMC; Synthetic sequence Kallikrein binder containing a WPAR motif)
Rank (sequences ranked according to Kallikrein binding) [1, 3]: 35

SEQ ID NO: 149 (CAWPARCTHTHLC; Synthetic sequence Kallikrein binder containing a WPAR motif)
Rank (sequences ranked according to Kallikrein binding) [1, 3]: 36

SEQ ID NO: 150 (CAWPARCLHADMC; Synthetic sequence Kallikrein binder containing a WPAR motif)
Rank (sequences ranked according to Kallikrein binding) [1, 3]: 37

SEQ ID NO: 151 (CAWPARCLHQDWC; Synthetic sequence Kallikrein binder containing a WPAR motif)
Rank (sequences ranked according to Kallikrein binding) [1, 3]: 38

SEQ ID NO: 152 (CDWPARCMHQEFC; Synthetic sequence Kallikrein binder containing a WPAR motif)
Rank (sequences ranked according to Kallikrein binding) [1, 3]: 39

SEQ ID NO: 153 (CAWPARCTHQTMC; Synthetic sequence Kallikrein binder containing a WPAR motif)
Rank (sequences ranked according to Kallikrein binding) [1, 3]: 40

SEQ ID NO: 154 (CTWPARCLHQHMC; Synthetic sequence Kallikrein binder containing a WPAR motif)
Rank (sequences ranked according to Kallikrein binding) [1, 3]: 41

SEQ ID NO: 155 (CSWPARCVHQDMC; Synthetic sequence Kallikrein binder containing a WPAR motif)
Rank (sequences ranked according to Kallikrein binding) [1, 3]: 42

SEQ ID NO: 156 (CEWPARCLHTDLC; Synthetic sequence Kallikrein binder containing a WPAR motif)
Rank (sequences ranked according to Kallikrein binding) [1, 3]: 43

SEQ ID NO: 157 (CLWPARCLTTELC; Synthetic sequence Kallikrein binder containing a WPAR motif)
Rank (sequences ranked according to Kallikrein binding) [1, 3]: 44

SEQ ID NO: 158 (CSWPARCTHAEMC; Synthetic sequence Kallikrein binder containing a WPAR motif)
Rank (sequences ranked according to Kallikrein binding) [1, 3]: 45

SEQ ID NO: 159 (CRWPARCTHTDLC; Synthetic sequence Kallikrein binder containing a WPAR motif)
Rank (sequences ranked according to Kallikrein binding) [1, 3]: 46

SEQ ID NO: 160 (CTWPARCTHQAFC; Synthetic sequence Kallikrein binder containing a WPAR motif)
Rank (sequences ranked according to Kallikrein binding) [1, 3]: 47

SEQ ID NO: 161 (CSWPARCTHSDLC; Synthetic sequence Kallikrein binder containing a WPAR motif)
Rank (sequences ranked according to Kallikrein binding) [1, 3]: 48

SEQ ID NO: 162 (CSWPARCLHDDLC; Synthetic sequence Kallikrein binder containing a WPAR motif)
Rank (sequences ranked according to Kallikrein binding) [1, 3]: 49

SEQ ID NO: 163 (CPWPARCLHTDLC; Synthetic sequence Kallikrein binder containing a WPAR motif)
Rank (sequences ranked according to Kallikrein binding) [1, 3]: 50

SEQ ID NO: 208 (CSWPARCTHQDLC; Synthetic sequence 06-34-03)
Rank (sequences ranked according to Kallikrein binding) [1, 3]: 2

WPAR: phage clone: WPAR at positions 2-5 within the 06-34-03 sequence, TBMB-cyclised (also: TBMB-cyclised within the 06-34-03 context, the cysteines lie outside this motif)
Kallikrein binding in target binding assay [1]: optimal sequence for Kallikrein binding | Relative abundance of motif in selection output (Biotinylated hPK; 2nd stringency from High (1st value of cell)): 19% | Relative abundance of motif in selection output (Biotinylated hPK; 3rd stringency from High (2nd value of cell)): 13% | Relative abundance of motif in selection output (Biotinylated hPK; 4th stringency from High (3rd value of cell)): 22% | Relative abundance of motif in selection output (Biotinylated hPK; 5th stringency from High (4th value of cell)): 6% | Relative abundance of motif in selection output (Biotinylated hPK; stringency High): 17% | Relative abundance of motif in selection output (Biotinylated hPK; stringency LOW): 4%
